Reference: US20190352411A1 (ALLIGATOR BIOSCIENCE, published 2019)

Assays:
[1] = biological target: T1, recombinant human OX40 (R&D #1493-CD) (human, UniProt P43489 29-216, limits assumed); assay: ELISA, coated OX40
T1 construct: Coated on ELISA plates
T1 sequence (looked up): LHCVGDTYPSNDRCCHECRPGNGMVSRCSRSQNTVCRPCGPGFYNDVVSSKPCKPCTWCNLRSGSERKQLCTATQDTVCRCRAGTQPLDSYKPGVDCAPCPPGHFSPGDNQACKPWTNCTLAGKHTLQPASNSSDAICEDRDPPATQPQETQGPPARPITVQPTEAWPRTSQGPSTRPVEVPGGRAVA
Protocol: (§1) Binding to TNFR superfamily members for which ELISA methods had already been established (CD40 and OX40) was evaluated to detect potential propensity to cross react to non-target proteins.
(§2) ELISA plates (Greiner #655074) were coated with 50 μl/well of recombinant human OX40 (R&D #1493-CD), CD40-Fc (Ancell #504-820) or CD137 (R&D #838-4B) diluted to a final concentration of 0.5 μg/ml in PBS for 1 h at 37° C. or overnight at 4° C. Plates were washed with PBS+0.05% TWEEN20 (PBST), followed by block with PBST+1% bovine serum albumin (BSA). Antibody samples were prepared as serial 1/10 dilutions from 10-0.01 μg/ml in PBST+1% BSA and incubated for 1 h in room temperature, followed by detection using a horse radish peroxidase-conjugated anti-human kappa light chain antibody (AbD Serotec # STAR127P) and developed using SuperSignal ELISA Pico Chemiluminescent substrate (Pierce ThermoScientific #37069).

[2] = biological target: T2, CD40-Fc (Ancell #504-820) (human, UniProt P25942 21-193); assay: ELISA, coated CD40-Fc
T2 construct: Coated on ELISA plates; not shown: Fc part of the commercial fusion protein; not described
Protocol: as §1, §2

[3] = biological target: T3, recombinant human CD137-Fc (R&D #838-4B) (human, UniProt Q07011 24-186); assay: ELISA, coated human CD137-Fc; mean
T3 construct: Bought protein coated on ELISA plates; also called CD137 (R&D #838-4B); not shown: Fc part of the commercial fusion protein; not described

[4] = biological target: T4, 1550: Human CD137 with mouse domains 1, 2A and 2B (aa 24-86) (human; mouse, UniProt P20334 24-85); assay: flow cytometry on transfected 293-F cells, human/mouse CD137 chimera
T4 construct: domain: domains 1, 2A and 2B (aa 24-86); Human/mouse chimera transiently expressed on FreeStyle 293-F cells; Limits of the human pieces are worked out from the printed aa range
Protocol: (§3) The ability of each antibody to bind to a panel of human/mouse CD137 chimeras expressed on the surface of transfected cells was analyzed by flow cytometry.
(§4) The chimeras were designed by exchanging domains or modules of the human CD137 with the corresponding mouse domain. Genes of CD137 human/mouse chimeras were synthesized (GenScript) and constructs cloned into pcDNA3.1 vector (Invitrogen) and transiently transfected into FreeStyle 293-F cells (Invitrogen). The transfected cells were incubated with CD137 antibodies and control antibodies, followed by incubation with anti-human IgG-PE (Jackson Immunoresearch) for detection and analyzed with FACS Verse (BD Biosciences). Binding to the different chimeric constructs was calculated as relative MFI compared to the binding of the isotype control, followed by normalization to the full-length human CD137 construct to minimize the effect of affinity differences between individual antibodies.

[5] = biological target: T5, 1551: Human CD137 with mouse domains 2A, 2B and 3A (aa 47-96) (human; mouse, UniProt P20334 46-95); assay: as above
T5 construct: domain: domains 2A, 2B and 3A (aa 47-96); Human/mouse chimera transiently expressed on FreeStyle 293-F cells
Protocol: as §3, §4

[6] = biological target: T6, 1552: Human CD137 with mouse domains 2B, 3A and 3B (aa 64-118) (human; mouse, UniProt P20334 63-117); assay: as above
T6 construct: Human/mouse chimera transiently expressed on FreeStyle 293-F cells
Protocol: as §3, §4

[7] = biological target: T7, 1553: Human CD137 with mouse domains 3A, 3B and 4A (aa 87-133) (human; mouse, UniProt P20334 86-133); assay: as above
T7 construct: domain: domains 3A, 3B and 4A (aa 87-133); Human/mouse chimera transiently expressed on FreeStyle 293-F cells
Protocol: as §3, §4

[8] = biological target: T8, 1554: Human CD137 with mouse domains 3B, 4A and 4B (aa 97-159) (human; mouse, UniProt P20334 96-159); assay: as above
T8 construct: domain: domains 3B, 4A and 4B (aa 97-159); Human/mouse chimera transiently expressed on FreeStyle 293-F cells
Protocol: as §3, §4

[9] = biological target: T9, 1555: Human CD137 with mouse domains 1 and 4B and region of unknown function (aa 24-46 and aa 139-186) (human; mouse, UniProt P20334 24-45; P20334 139-185); assay: as above
T9 construct: Human/mouse chimera transiently expressed on FreeStyle 293-F cells
Protocol: as §3, §4

[10] = biological target: T10, human CD137 on transfected CHO cells (CHO-huCD137) (human); assay: flow cytometry on CHO-huCD137 cells; 95% confidence interval of the EC50
T10 construct: domain: transmembrane and intracellular part
Protocol: Binding and EC50 was determined using flow cytometric of CHO cells transfected with human CD137, cynomolgus CD137 or empty vector. The extracellular part of human or cynomolgus CD137 was fused to the transmembrane and intracellular part of human CD40 and cloned into pcDNA3.1. The vector was subsequently stably transfected into CHO cells. […] CD137-transfected and empty vector-transfected cells were incubated with CD137 antibodies for at least 1 h at 4° C. to saturate the binding. In order to minimize antibody internalization, 0.05% sodium azide was used in the incubation buffer and all work was performed on ice. The CD137 antibodies were detected using PE-conjugated anti-hIgG antibody (109-115-098, Jackson Immunoresearch laboratories), incubated for 30 min at 4° C. Directly after staining the cells were fixed with a paraformaldehyde solution (10× concentrate BD CellFIX, BD biosciences #340181). Cells were analyzed by flow cytometry using FACSVerse (BD Biosciences). The median fluorescence intensity (MFI) for each sample was determined and the dose response data was analysed using Graph Pad Prism.
MFI data was normalized for each antibody, where 0% is defined as the lowest value and 100% is the highest value in the dose titration for each antibody.

T4 sequence (P20334 other isoform, or with tags, fused parts or gaps limits assumed): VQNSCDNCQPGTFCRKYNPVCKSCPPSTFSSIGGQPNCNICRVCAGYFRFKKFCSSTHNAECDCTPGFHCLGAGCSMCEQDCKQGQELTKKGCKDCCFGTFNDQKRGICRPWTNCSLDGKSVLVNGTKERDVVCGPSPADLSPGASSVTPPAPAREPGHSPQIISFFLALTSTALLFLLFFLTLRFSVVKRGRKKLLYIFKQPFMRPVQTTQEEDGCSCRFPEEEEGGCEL
T10 sequence (P25942 other isoform, or with tags, fused parts or gaps limits assumed): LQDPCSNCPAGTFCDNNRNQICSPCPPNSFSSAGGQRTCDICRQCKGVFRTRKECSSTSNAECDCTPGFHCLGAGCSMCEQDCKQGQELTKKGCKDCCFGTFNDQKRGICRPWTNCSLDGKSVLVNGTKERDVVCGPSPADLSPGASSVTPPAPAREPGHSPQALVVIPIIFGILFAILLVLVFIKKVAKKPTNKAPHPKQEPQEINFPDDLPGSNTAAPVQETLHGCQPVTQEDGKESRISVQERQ
T3 sequence (Q07011 24-186 limits assumed): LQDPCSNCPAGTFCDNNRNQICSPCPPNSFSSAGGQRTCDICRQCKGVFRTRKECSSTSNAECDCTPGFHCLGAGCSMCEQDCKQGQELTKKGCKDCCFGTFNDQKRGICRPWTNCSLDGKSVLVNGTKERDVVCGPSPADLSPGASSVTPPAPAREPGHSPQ
T7 sequence (P20334 other isoform, or with tags, fused parts or gaps limits assumed): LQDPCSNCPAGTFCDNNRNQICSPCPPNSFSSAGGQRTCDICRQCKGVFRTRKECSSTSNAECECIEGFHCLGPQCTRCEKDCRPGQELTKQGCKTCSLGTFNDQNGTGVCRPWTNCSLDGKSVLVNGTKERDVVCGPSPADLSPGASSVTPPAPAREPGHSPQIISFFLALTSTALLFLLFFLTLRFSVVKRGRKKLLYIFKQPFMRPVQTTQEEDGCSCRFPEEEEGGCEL
T9 sequence (P20334 other isoform, or with tags, fused parts or gaps limits assumed): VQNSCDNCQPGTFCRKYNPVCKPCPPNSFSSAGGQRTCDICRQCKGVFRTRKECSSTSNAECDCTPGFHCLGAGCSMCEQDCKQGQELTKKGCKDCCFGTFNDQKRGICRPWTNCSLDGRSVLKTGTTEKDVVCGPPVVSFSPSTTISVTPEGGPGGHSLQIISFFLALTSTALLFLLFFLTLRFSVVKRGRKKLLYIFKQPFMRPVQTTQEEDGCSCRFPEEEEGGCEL
T6 sequence (P20334 other isoform, or with tags, fused parts or gaps limits assumed): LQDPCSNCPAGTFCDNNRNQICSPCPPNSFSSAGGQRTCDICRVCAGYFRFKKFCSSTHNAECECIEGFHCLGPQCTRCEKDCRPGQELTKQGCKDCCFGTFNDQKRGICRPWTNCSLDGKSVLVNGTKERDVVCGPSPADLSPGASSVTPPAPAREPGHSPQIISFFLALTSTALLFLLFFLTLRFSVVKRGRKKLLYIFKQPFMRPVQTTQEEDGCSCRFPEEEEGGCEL
T2 sequence (P25942 21-193 limits assumed): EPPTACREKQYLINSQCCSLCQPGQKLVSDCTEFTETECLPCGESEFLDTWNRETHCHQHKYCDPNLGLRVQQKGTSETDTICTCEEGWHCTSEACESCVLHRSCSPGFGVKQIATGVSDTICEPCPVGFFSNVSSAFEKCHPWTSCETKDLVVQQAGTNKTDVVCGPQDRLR
T8 sequence (P20334 other isoform, or with tags, fused parts or gaps limits assumed): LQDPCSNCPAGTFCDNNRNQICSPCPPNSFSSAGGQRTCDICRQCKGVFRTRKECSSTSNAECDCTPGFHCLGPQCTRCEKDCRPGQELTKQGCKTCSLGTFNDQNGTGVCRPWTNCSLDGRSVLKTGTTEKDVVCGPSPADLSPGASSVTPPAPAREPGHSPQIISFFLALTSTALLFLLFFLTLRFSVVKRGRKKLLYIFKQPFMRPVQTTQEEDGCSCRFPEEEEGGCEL
T5 sequence (P20334 other isoform, or with tags, fused parts or gaps limits assumed): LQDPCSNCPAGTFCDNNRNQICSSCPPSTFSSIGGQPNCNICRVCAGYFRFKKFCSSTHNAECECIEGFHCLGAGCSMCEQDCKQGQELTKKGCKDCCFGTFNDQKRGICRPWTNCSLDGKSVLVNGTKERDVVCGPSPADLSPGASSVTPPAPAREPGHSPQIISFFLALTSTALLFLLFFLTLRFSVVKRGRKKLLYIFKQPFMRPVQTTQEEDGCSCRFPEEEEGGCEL

B1: 1630/1631 (antibody, human IgG4 S228P, kappa, V domains shown)
VH: EVQLLESGGGLVQPGGSLRLSCAASGFTFGYSYMSWVRQAPGKGLEWVSSIGSGSSYTYYADSVKGRFTISRDNSKNTLYLQMNSLRAEDTAVYYCARVYSSPGIDYWGQGTLVTVSS
VL: DIQMTQSPSSLSASVGDRVTITCRASQSISSYLNWYQQKPGKAPKLLIYAASSLQSGVPSRFSGSGSGTDFTLTISSLQPEDFATYYCQQYYTWVPFTFGQGTKLEIKR
notes: the format in each assay is not restated
- binding result [1]: no binding (tested: 10 µg/ml highest concentration tested)
- binding result [2]: no binding (tested: 10 µg/ml highest concentration tested)
- EC50 [3]: 0.27 nM
- MFI antibody/isotype control, normalized to full-length human CD137 [4]: 0.11
- MFI antibody/isotype control, normalized to full-length human CD137 [5]: 0.1
- MFI antibody/isotype control, normalized to full-length human CD137 [6]: 0.25
- MFI antibody/isotype control, normalized to full-length human CD137 [7]: 0.91
- MFI antibody/isotype control, normalized to full-length human CD137 [8]: 0.85
- MFI antibody/isotype control, normalized to full-length human CD137 [9]: 0.35
- EC50 [10]: 0.23 to 0.34 nM
